# According to patent US20090233319:
# T1: recombinant ICAD protein, O00273
# T1 chain: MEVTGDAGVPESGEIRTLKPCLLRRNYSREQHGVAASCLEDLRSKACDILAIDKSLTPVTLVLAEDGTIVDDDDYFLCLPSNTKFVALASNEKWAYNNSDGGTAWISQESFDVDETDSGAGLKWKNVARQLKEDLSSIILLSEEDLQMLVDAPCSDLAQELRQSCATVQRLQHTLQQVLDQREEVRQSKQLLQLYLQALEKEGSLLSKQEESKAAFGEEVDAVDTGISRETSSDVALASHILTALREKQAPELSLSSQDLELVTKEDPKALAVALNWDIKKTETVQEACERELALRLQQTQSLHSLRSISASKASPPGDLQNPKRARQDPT
# Biological target: T1, recombinant ICAD protein, O00273
protein,measurement,value
purified caspase-14 from human cornified cells (heterodimer of large subunit 17 KDa and small subunit 11 KDa) (protein) chain 1: SLEEEKYDMSGARLALILCVTKAREGSEEDLDALEHMFRQLRFESTMKRDPTAEQFQEELEKFQQAIDSREDPVSCAFVVLMAHGREGFLKGEDGEMVKLENLFEALNNKNCQALRAKPKVYIIQACRGEQRDPGETVGGD chain 2: KDSPQTIPTYTDALHVYSTVEGYIAYRHDQKGSCFIQTLVDVFTKRKGHILELLTEVTRRMAEAELVQEGKARKTNPEIQSTLRKRLYLQ,ICAD decomposition by caspase-14 in the presence of a kosmotropic salt (Western blot with anti-ICAD IgG),"intact ICAD protein was reduced and the two major decomposition products were increased, thus indicating that purified caspase-14 has a limited decomposing effect on ICAD"
same,ICAD hydrolysis by caspase-14 in ordinary caspase assay buffer (Western blot with anti-ICAD IgG),showed absolutely no hydrolytic activity of the purified caspase-14 for ICAD
